How the values were obtained:
[1] = molecular target: T1, NSR (Thermotoga maritima, UniProt Q9WYL1); experiment: thin-layer chromatography of cofactor; format: binding; details: as-purified recombinant enzyme
T1 construct: gene TM_0379; full-length ORF amplified from genomic DNA, pET-24b(+) BamHI/XhoI, His-tagged, E. coli BL21; about 50 kDa by SDS-PAGE; FAD flavoprotein; purified anaerobically
T1 sequence (Q9WYL1 1-443): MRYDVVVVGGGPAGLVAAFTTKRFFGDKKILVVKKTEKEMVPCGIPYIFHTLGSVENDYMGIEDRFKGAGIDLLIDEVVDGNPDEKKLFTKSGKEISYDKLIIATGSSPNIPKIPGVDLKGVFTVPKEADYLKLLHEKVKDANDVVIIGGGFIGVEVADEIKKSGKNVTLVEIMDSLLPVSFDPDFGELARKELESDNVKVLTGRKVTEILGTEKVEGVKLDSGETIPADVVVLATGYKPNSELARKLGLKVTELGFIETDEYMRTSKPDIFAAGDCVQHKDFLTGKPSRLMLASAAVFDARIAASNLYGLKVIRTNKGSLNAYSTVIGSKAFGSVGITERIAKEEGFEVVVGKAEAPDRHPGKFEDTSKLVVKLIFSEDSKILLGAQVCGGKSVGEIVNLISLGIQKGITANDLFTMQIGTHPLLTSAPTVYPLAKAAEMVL

[2] = substrate: O=S(O)(O)=S; experiment: purified protein; format: biochemical, Thermotoga maritima; details: co-substrate NADH, 50 mM phosphate pH 7.0, 45 °C, anaerobic, table cell does not tell whether CoA was present
[3] = substrate: NC(=O)C1=CN([C@@H]2O[C@H](COP(=O)(O)OP(=O)(O)OC[C@H]3O[C@@H](n4cnc5c(N)ncnc54)[C@H](O)[C@@H]3O)[C@@H](O)[C@H]2O)C=CC1; experiment: purified protein; format: biochemical, Thermotoga maritima; details: co-substrate S^0, 50 mM phosphate pH 7.0, 45 °C, anaerobic, table cell does not tell whether CoA was present
[4] = substrate: NC(=O)C1=CN([C@@H]2O[C@H](COP(=O)(O)OP(=O)(O)OC[C@H]3O[C@@H](n4cnc5c(N)ncnc54)[C@H](OP(=O)(O)O)[C@@H]3O)[C@@H](O)[C@H]2O)C=CC1; experiment: purified protein; format: biochemical, Thermotoga maritima; details: co-substrate S^0, 50 mM phosphate pH 7.0, 45 °C, anaerobic, table cell does not tell whether CoA was present

With `Cc1cc2nc3c(=O)[nH]c(=O)nc-3n(C[C@H](O)[C@H](O)[C@H](O)COP(=O)(O)OP(=O)(O)OC[C@H]3O[C@@H](n4cnc5c(N)ncnc54)[C@H](O)[C@@H]3O)c2cc1C` [FAD] the “thin-layer chromatography of cofactor” value [1] was “Thin-layer chromatography analysis showed that it binds FAD as its cofactor”.

B1: NSR (Thermotoga maritima MSB8) (protein)
chain: MRYDVVVVGGGPAGLVAAFTTKRFFGDKKILVVKKTEKEMVPCGIPYIFHTLGSVENDYMGIEDRFKGAGIDLLIDEVVDGNPDEKKLFTKSGKEISYDKLIIATGSSPNIPKIPGVDLKGVFTVPKEADYLKLLHEKVKDANDVVIIGGGFIGVEVADEIKKSGKNVTLVEIMDSLLPVSFDPDFGELARKELESDNVKVLTGRKVTEILGTEKVEGVKLDSGETIPADVVVLATGYKPNSELARKLGLKVTELGFIETDEYMRTSKPDIFAAGDCVQHKDFLTGKPSRLMLASAAVFDARIAASNLYGLKVIRTNKGSLNAYSTVIGSKAFGSVGITERIAKEEGFEVVVGKAEAPDRHPGKFEDTSKLVVKLIFSEDSKILLGAQVCGGKSVGEIVNLISLGIQKGITANDLFTMQIGTHPLLTSAPTVYPLAKAAEMVL
notes: full-length ORF amplified from genomic DNA, pET-24b(+) BamHI/XhoI, His-tagged, E. coli BL21; about 50 kDa by SDS-PAGE; FAD flavoprotein; purified anaerobically
In the case of B1, the Km [2] is reported as 10 ± 1.2 µM, the Km [3] is reported as 50 ± 6.3 µM and the Km [4] is reported as 80 ± 21.2 µM.

Reference: publication PMC9431562, “A Cytoplasmic NAD(P)H-Dependent Polysulfide Reductase with Thiosulfate Reductase Activity from the Hyperthermophilic Bacterium Thermotoga maritima” (Microbiology Spectrum, 2022)
